In patent US8835136B2, “Engineered amine dehydrogenases and methods of use thereof” (Georgia Tech Research Corporation, priority 2012, dated 2014):

Key:
Format in all cases: biochemical
[1] = Reductive amination activity
[2] = Reductive amination of PFPA, spectrophotometric assay at 340 nm
Description: Activity of purified proteins was measured using a spectrophotometric assay at 340 nm, corresponding to the cofactor nicotinamide adenine dinucleotide (NADH, ε340=6220 M^−1 cm^−1) (Dawson, et al., Clarendon Press, (1989). For reductive amination, reactions took place in 500 mM NH4Cl/NH4OH at pH 9.6, with 200 μM NADH and 20 mM of the ketone substrate, unless otherwise specified. For oxidative deamination, reactions took place in 0.1 M NaHCO3/Na2CO3 buffer at pH 10.0, with 1 mM NAD+ with 10 mM of the amine substrate of interest. All reactions were performed at 25° C. unless otherwise specified. Enzyme was added in 10 μL aliquots in dilute concentrations. Enzyme concentrations varied upon activity levels with the substrate present, but were dilute enough to ensure linear conversion kinetics over the analytical time period (10 min to 30 min). Specific activities were then calculated from the stoichiometric conversion of cofactor as determine by the change in absorbance at 340 nm over time.
The activity of the purified protein was evaluated using a spectrophotometric assay at 340 nm as described in Section 3.2.3 at 25° C. in various concentrations of NH4Cl/NH4OH buffer pH 9.6.
Active variants were identified by the rate of change in absorbance at 340 nm, corresponding to the fastest activity. […] Some variants consumed the cofactor too quickly (<5 min) to be observed over multiple time points, and gave low absorbance in the initial time point. These variants were included for further characterization. The successful variants were sequenced (MWG Operon), and each unique sequence was expressed in pET28a/BL21 for histag purification and determination of kcat and KM values with PFPA.

[3] = Kinetic parameter for NADH (PheDH-AmDH)
Description: Kinetic parameters, kcat and KM, were determined for the enzyme and each of the reductive amination substrates; respectively. […] The kcat value for this AmDH enzyme with all three substrates saturated in aqueous NH4Cl/NH4OH buffer at pH 9.6 was 6.85 s^−1 at 25° C. This represents a near 15-fold enhancement above the maximum observed kcat of 0.46 s^−1 of the previously developed LeuDH-AmDH.

B1: K77S N276L: PheDH-AmDH double variant, SEQ ID NO:2; PheDH library 1 hit 1H4 (protein)
chain: SLVEKTSIIKDFTLFEKMSEHEQVVFCNDPATGLRAIIAIHDTTLGPALGGCRMQPYNSVEEALEDALRLSKGMTYSCAASDVDFGGGKAVIIGDPQKDKSPELFRAFGQFVDSLGGRFYTGTDMGTNMEDFIHAMKETNCIVGVPEAYGGGGDSSIPTAMGVLYGIKATNKMLFGKDDLGGVTYAIQGLGKVGYKVAEGLLEEGAHLFVTDINEQTLEAIQEKAKTTSGSVTVVASDEIYSQEADVFVPCAFGGVVNDETMKQFKVKAIAGSANLQLLTEDHGRHLADKGILYAPDYIVNSGGLIQVADELYEVNKERVLAKTKHIYDAILEVYQQAELDQITTMEAANRMCEQRMAARGRRNSFFTSSVKPKWDIRN
activity level, 1,3 Phenylbutanedione [1]: 30 mU/mg
enhancement above maximum kcat of LeuDH-AmDH [2]: ~15 fold
kcat, amination of PFPA ([2]; 500 mM NH4Cl/NH4OH pH 9.6, 200 μM NADH, apparent): 2.8 s⁻¹
Km ([2]; 500 mM NH4Cl/NH4OH pH 9.6, 200 μM NADH, read-out: KM, amination of PFPA): 4.37 mM
Km ([2]; 5 M NH4Cl/NH4OH pH 9.6, 200 μM NADH, read-out: KM value of PFPA): 7.75 mM
kcat with all three substrates saturated ([2]; aqueous NH4Cl/NH4OH buffer pH 9.6, 25° C.): 6.85 s⁻¹
Km [3]: 0.0239 mM
